Data published in patent US20210388087A1 (Chugai, published 2021).
Substitutions are numbered along the chain they refer to. Values belong to the binder of their own block, whether it stands above or below them.

Target: T1, Human CD137 ECD (human)
T1 construct: entry includes C-terminal His-tag and biotin acceptor peptide; also called human CD137 extracellular domain; 4-1BB
Experiment: Biacore SPR, vs parent H183/L072

T1 sequence (chain, as listed by the source limits assumed): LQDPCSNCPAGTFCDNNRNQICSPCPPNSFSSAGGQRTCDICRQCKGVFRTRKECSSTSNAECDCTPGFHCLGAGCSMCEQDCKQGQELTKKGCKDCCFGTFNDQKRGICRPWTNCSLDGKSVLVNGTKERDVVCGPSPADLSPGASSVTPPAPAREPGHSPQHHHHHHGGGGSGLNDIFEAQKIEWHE

- fold change of affinity: 0.9 fold
B1: H183/L072 VL N30G (antibody, name in Kabat numbering, V domains shown)
VH: QVQLVESGGGLVQPGRSLRLSCAASGFTFSNAWMHWVRQAPGKGLEWVAQIKDKGNAYAAYYAPSVKGRFTISRDDSKNSIYLQMNSLKTEDTAVYYCHYVHYASASTVLPAFGVDAWGQGTTVTVSS
VL: DIVMTQSPLSLPVTPGEPASISCQASQELVHMNRGTYLHWYQQKPGQAPRLLIYKVSNRFPGVPDRFSGSGSGTDFTLKISRVEAEDVGVYYCAQGTSVPFTFGQGTKLEIK
notes: Dual-Ig

- fold change of affinity: 0.9 fold
B2: H183/L072 VL N30W (antibody, name in Kabat numbering, V domains shown)
VH: B1 VH
VL: B1 VL with G35W
notes: Dual-Ig

- fold change of affinity: 0.5 fold
B4: H183/L072 VL N30R (antibody, name in Kabat numbering, V domains shown)
VH: B1 VH
VL: B1 VL with G35R
notes: Dual-Ig

- fold change of affinity: 0.1 fold
B6: H183/L072 VL P56E (antibody, name in Kabat numbering, V domains shown)
VH: B1 VH
VL: B1 VL with G35N, P61E
notes: Dual-Ig

- fold change of affinity: 0.2 fold
B7: H183/L072 VL N30S (antibody, name in Kabat numbering, V domains shown)
VH: B1 VH
VL: B1 VL with G35S
notes: Dual-Ig

- fold change of affinity: 0.3 fold
B8: H183/L072 VL N30I (antibody, name in Kabat numbering, V domains shown)
VH: B1 VH
VL: B1 VL with G35I
notes: Dual-Ig

- fold change of affinity: 0.2 fold
B11: H183/L072 VL P56M (antibody, name in Kabat numbering, V domains shown)
VH: B1 VH
VL: B1 VL with G35N, P61M
notes: Dual-Ig

- fold change of affinity: 0 fold
B12: H183/L072 VL P56K (antibody, name in Kabat numbering, V domains shown)
VH: B1 VH
VL: B1 VL with G35N, P61K
notes: Dual-Ig

- fold change of affinity: 0.6 fold
B15: H183/L072 VL N30Y (antibody, name in Kabat numbering, V domains shown)
VH: B1 VH
VL: B1 VL with G35Y
notes: Dual-Ig

- fold change of affinity: 0 fold
B18: H183/L072 VL N53P (antibody, name in Kabat numbering, V domains shown)
VH: B1 VH
VL: B1 VL with G35N, N58P
notes: Dual-Ig

- fold change of affinity: 0.2 fold
B20: H183/L072 VL P56D (antibody, name in Kabat numbering, V domains shown)
VH: B1 VH
VL: B1 VL with G35N, P61D
notes: Dual-Ig

- fold change of affinity: 0.5 fold
B21: H183/L072 VL N53S (antibody, name in Kabat numbering, V domains shown)
VH: B1 VH
VL: B1 VL with G35N, N58S
notes: Dual-Ig

- fold change of affinity: 0.2 fold
B22: H183/L072 VL P56N (antibody, name in Kabat numbering, V domains shown)
VH: B1 VH
VL: B1 VL with G35N, P61N
notes: Dual-Ig

- fold change of affinity: 0.1 fold
B25: H183/L072 VL P56A (antibody, name in Kabat numbering, V domains shown)
VH: B1 VH
VL: B1 VL with G35N, P61A
notes: Dual-Ig

- fold change of affinity: 0.2 fold
B28: H183/L072 VL N53E (antibody, name in Kabat numbering, V domains shown)
VH: B1 VH
VL: B1 VL with G35N, N58E
notes: Dual-Ig

- fold change of affinity: 0.3 fold
B32: H183/L072 VL N53R (antibody, name in Kabat numbering, V domains shown)
VH: B1 VH
VL: B1 VL with G35N, N58R
notes: Dual-Ig

- fold change of affinity: 0 fold
B34: H183/L072 VL N53T (antibody, name in Kabat numbering, V domains shown)
VH: B1 VH
VL: B1 VL with G35N, N58T
notes: Dual-Ig

- fold change of affinity: 0.5 fold
B38: H183/L072 VL N53V (antibody, name in Kabat numbering, V domains shown)
VH: B1 VH
VL: B1 VL with G35N, N58V
notes: Dual-Ig

- fold change of affinity: 0.6 fold
B40: H183/L072 VL N30K (antibody, name in Kabat numbering, V domains shown)
VH: B1 VH
VL: B1 VL with G35K
notes: Dual-Ig

- fold change of affinity: 0.2 fold
B42: H183/L072 VL P56Q (antibody, name in Kabat numbering, V domains shown)
VH: B1 VH
VL: B1 VL with G35N, P61Q
notes: Dual-Ig

- fold change of affinity: 1 fold
B43: H183/L072 VL N30H (antibody, name in Kabat numbering, V domains shown)
VH: B1 VH
VL: B1 VL with G35H
notes: Dual-Ig

- fold change of affinity: 0.1 fold
B46: H183/L072 VL N53M (antibody, name in Kabat numbering, V domains shown)
VH: B1 VH
VL: B1 VL with G35N, N58M
notes: Dual-Ig

The remaining lines, values behind:

B3: H183/L072 VL N53I (antibody, name in Kabat numbering, V domains shown)
VH: B1 VH
VL: B1 VL with G35N, N58I
notes: Dual-Ig
- fold change of affinity: 0.2 fold

B5: H183/L072 VL N53H (antibody, name in Kabat numbering, V domains shown)
VH: B1 VH
VL: B1 VL with G35N, N58H
notes: Dual-Ig
- fold change of affinity: 0.5 fold

B9: H183/L072 VL N53D (antibody, name in Kabat numbering, V domains shown)
VH: B1 VH
VL: B1 VL with G35N, N58D
notes: Dual-Ig
- fold change of affinity: 0.3 fold

B10: H183/L072 VL N30T (antibody, name in Kabat numbering, V domains shown)
VH: B1 VH
VL: B1 VL with G35T
notes: Dual-Ig
- fold change of affinity: 0.3 fold

B13: H183/L072 VL P56G (antibody, name in Kabat numbering, V domains shown)
VH: B1 VH
VL: B1 VL with G35N, P61G
notes: Dual-Ig
- fold change of affinity: 0.1 fold

B14: H183/L072 VL N53W (antibody, name in Kabat numbering, V domains shown)
VH: B1 VH
VL: B1 VL with G35N, N58W
notes: Dual-Ig
- fold change of affinity: 0 fold

B16: H183/L072 VL N53K (antibody, name in Kabat numbering, V domains shown)
VH: B1 VH
VL: B1 VL with G35N, N58K
notes: Dual-Ig
- fold change of affinity: 0.2 fold

B17: H183/L072 VL N30V (antibody, name in Kabat numbering, V domains shown)
VH: B1 VH
VL: B1 VL with G35V
notes: Dual-Ig
- fold change of affinity: 0.7 fold

B19: H183/L072 VL N53L (antibody, name in Kabat numbering, V domains shown)
VH: B1 VH
VL: B1 VL with G35N, N58L
notes: Dual-Ig
- fold change of affinity: 0.2 fold

B23: H183/L072 VL P56F (antibody, name in Kabat numbering, V domains shown)
VH: B1 VH
VL: B1 VL with G35N, P61F
notes: Dual-Ig
- fold change of affinity: 0 fold

B24: H183/L072 VL N53G (antibody, name in Kabat numbering, V domains shown)
VH: B1 VH
VL: B1 VL with G35N, N58G
notes: Dual-Ig
- fold change of affinity: 0.6 fold

B26: H183/L072 VL P56R (antibody, name in Kabat numbering, V domains shown)
VH: B1 VH
VL: B1 VL with G35N, P61R
notes: Dual-Ig
- fold change of affinity: 0 fold

B27: H183/L072 VL N30P (antibody, name in Kabat numbering, V domains shown)
VH: B1 VH
VL: B1 VL with G35P
notes: Dual-Ig
- fold change of affinity: 0.4 fold

B29: H183/L072 VL P56T (antibody, name in Kabat numbering, V domains shown)
VH: B1 VH
VL: B1 VL with G35N, P61T
notes: Dual-Ig
- fold change of affinity: 0.2 fold

B30: H183/L072 VL N30M (antibody, name in Kabat numbering, V domains shown)
VH: B1 VH
VL: B1 VL with G35M
notes: Dual-Ig
- fold change of affinity: 1.8 fold

B31: H183/L072 VL N53A (antibody, name in Kabat numbering, V domains shown)
VH: B1 VH
VL: B1 VL with G35N, N58A
notes: Dual-Ig
- fold change of affinity: 0.7 fold

B33: H183/L072 VL N30L (antibody, name in Kabat numbering, V domains shown)
VH: B1 VH
VL: B1 VL with G35L
notes: Dual-Ig
- fold change of affinity: 0.3 fold

B35: H183/L072 VL N53Q (antibody, name in Kabat numbering, V domains shown)
VH: B1 VH
VL: B1 VL with G35N, N58Q
notes: Dual-Ig
- fold change of affinity: 0.4 fold

B36: H183/L072 VL N53F (antibody, name in Kabat numbering, V domains shown)
VH: B1 VH
VL: B1 VL with G35N, N58F
notes: Dual-Ig
- fold change of affinity: 0.3 fold

B37: H183/L072 VL P56I (antibody, name in Kabat numbering, V domains shown)
VH: B1 VH
VL: B1 VL with G35N, P61I
notes: Dual-Ig
- fold change of affinity: 0.1 fold

B39: H183/L072 VL N30Q (antibody, name in Kabat numbering, V domains shown)
VH: B1 VH
VL: B1 VL with G35Q
notes: Dual-Ig
- fold change of affinity: 1 fold

B41: H183/L072 VL P56L (antibody, name in Kabat numbering, V domains shown)
VH: B1 VH
VL: B1 VL with G35N, P61L
notes: Dual-Ig
- fold change of affinity: 0.1 fold

B44: H183/L072 VL P56S (antibody, name in Kabat numbering, V domains shown)
VH: B1 VH
VL: B1 VL with G35N, P61S
notes: Dual-Ig
- fold change of affinity: 0.1 fold

B45: H183/L072 VL P56H (antibody, name in Kabat numbering, V domains shown)
VH: B1 VH
VL: B1 VL with G35N, P61H
notes: Dual-Ig
- fold change of affinity: 0 fold
